The experiment concerns the target rhCD39-ECD. The experiment in a line: BLI. The following applies: 30.0 °C.

With TTX-030, the Kd entry is, setting by setting: (pH 6.5) “approximately 1.5 nM”; (pH 7.4) “approximately 1.5 nM”.
